The values that follow come from the nanobody polyreactivity screen of Harvey et al. (2022).

This series in a line: yeast display, Sf9 membrane polyspecificity reagent, FACS + sequencing; frameworks hold sequencing errors. The method in brief:
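Galactose induction of a Saccharomyces cerevisiae BJ5465 synthetic nanobody display library ran 36–48 hours. The cells were then stained for 1 hour at 4 °C with 10% biotinylated, detergent-solubilized Sf9 membrane reagent, pulled down on streptavidin microbeads and FACS-sorted into low and high (top ~1%) gates on expression and reagent-binding fluorescence. Labels for polyreactivity follow the gate of origin.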
For “QVQLVETGGGLVQAGGSLRLSCAASGSTFPAYTMGWYRQAPGKERELVAAITTGGRTYYADSVKGRFTISRDNAKNTVYLQMNSLKPEDTAVYYCAAKRYCYRSLPYYGIHGWGQGTQVTVSS”, the “polyreactivity (PSR sort gate)” value is “high polyreactivity”.
Regarding “QVQLVETGGGLVQAGGSLRLSCAASGSTFSDYVMGWYRQAPGKERELVAAITWSGGSTYYADSVKGRFTISRDNAKNTVYLQMNSLKPEDTAVYYCAADPTASGHFLGQVDYWGQGTQVTVSS”, the “polyreactivity (PSR sort gate)” value was “high polyreactivity”.
In the case of “QVQLVETGGGLVQAGGSLRLSCAASGSTFWYYGMGWYRQAPGKERELVAAISRRGGSTYYADSVKGRFTFSRDNAKNTVYLQMNSLKPEDTAVYYCAADRLIGDGENYYWGQGTQVTVSS” it was “high polyreactivity”; in that of “QVQLVETGGGLVQAGGSLRLSCAASRSIFARNAMGWYRQAPGKERELVAAISWSGGRTYYADSVKGRFPISRVNAKNTVYLQMNSLKPEDTAVYYCATYTWWGQGTQVTVSS”, “high polyreactivity”.
For “QVQLVETGGGLVQAGGSLRLSCADYGYILWNAMGWYRQAPGTEMELVPAIRFRGGSTSYADSVKGRFTISRDNAQNTVYLQMKSLKPVYTAVYYCNARWWVIRPYERHDYWGQGTQVTVTS”, the “polyreactivity (PSR sort gate)” value was “low polyreactivity”.
As for “QVQLVETGGGLVQAGGSLRLSCAPSGRTFGPYAMGWYRQAPGKERELVAAIRVRGASTYYADSVKVRFTISRDNEKNTVYLQMNSLKPEDTEVYYCAATLSYYVGVRYDYWGQGTQVTVSS”, the entry is “high polyreactivity”; as for “QVQLVETGGGLVQAGGSLRLSCAPSGRTLSYYAMGWYIQAPGKERELVAAIRHSAGSTYYADSVKVRFTISRDNAKNTVYLQMISLKPEDTAVYYCAKKYYGHRYPSIYDYWGQGTQVTVSS”, “high polyreactivity”; as for “QVQLVETGGGLVQAGGSLRLSSGASGFIFVRNAMGWYRQAPGKEREFVAAINSSGGRTYYADSVKGRFTISRDNANNTVNLQMNSLKPEDTAVYYCAARPQPKKFYYWGQGTQETVSS”, “high polyreactivity”.
As for “QVQLVETGGGLVQAGGSLSLSCAASGRTSKINAMGWYRQAPGKERELVASISRTGGTTYYADSVKGRFTISRDNAKNTVYLQMNSVKPEDTAVYYCAVSDFGLRDSLTIYDEYDYWGQGTQVTVSS”, the entry is “high polyreactivity”; as for “QVQLVETGGGLVQAGGSLSLSCAASGSILDLNAMGWYRQAPGKERELVAAISSGGGTYYADSVKGRFTISRDNAKNTVYLQMNSLKPEDTAVYYCNRVTRWTYNYWGQGTQVTVSS”, “high polyreactivity”.
In the case of “QVQLVETGGGLVQAGGSLSLSCAGSGHTFTNNAMGWYRQAPGKERELVAAITFSGGRTYYADSVKGRFTISRDNAKNTVYLQKNSLKPEDTAVYYCDAVNPGGSIYDYWGQGTQVTVSS” it was “low polyreactivity”; in that of “QVQLVETGGRLVQAGGSLRLSSAASGSIFYPYAMGWYRQAPGKEREWVATITISGGRTYYADSVKGRFTISRDNAKNTVYLQMNSLKPEDTAFYYCATEYAYGAFLYDYWGQGTQVTVSW”, “low polyreactivity”.
“QVQLVETGGVLDQAGGSLRLSCAASGRIFWANAMGWYRQAPGKERELVAAISYSGVSTYYADSVKGRFTSSRDNAKNTVYLQMNSLKPEDTAVYYCAADRYRKYYYWGQGTQVTVSS”: the “polyreactivity (PSR sort gate)” value was “high polyreactivity”.
Take “QVQLVETGRGLVQAGGSLRLSCAASGSTFWPNAMGWYRQAPGKDRELVAAITSGGGTKYADSVKGRFTISRDNAKNTVYLQMNSLKPEDTAVYYCAKRKGDRGAWNHAYGWEDVDYWGQGTQVTVSS”: the “polyreactivity (PSR sort gate)” value is “low polyreactivity”.
In the case of “QVQLVETGRGLVQEGGSLRLICAASGRTFYIYAMGWYRQAPGKERDLVAAISWGSGSPYYADSVKGRFTISRDNAKNTVYLQINSLKPEDTAVYYFAAEYAFPSEWTYDYWGQVTQVTVSS” it was “low polyreactivity”; in that of “QVQLVETPGGLVQAGGSLRLSCAASGRIFAYNAMGWYRQEPGNERELVAAIDSGGDTNYADSVKGRFTISRDNAKNTVYLKMNSLKPEVTAVYYCWSRAAPPGWFYGTNDNYWGQGTQVTVSS”, “low polyreactivity”; in that of “QVQLVETVRGLVQAGGSLRITCAASGRIYAYYSMGWYRQPPGKERELVAAITRSGGSTYYADSVKGRFTNSRDIAKYTVYIQMISLKPEDNAVYYCAPSLNVPYATMNYWGQGTQVTVSA”, “high polyreactivity”.
As for “QVQLVEYGGGLVQAGGSLRLSCAASGRIFNYYAMGWYRQAPGKEREFVAAITRSGGRTYYADSVKGRFTISRDNAKNTVYLQMNILKPEDTAVYYCAAPYGTYAYDYSGQGTQVTVSS”, the entry is “high polyreactivity”; as for “QVQLVEYGGGLVQAGGSLRLSCADSGRIFDVYAMGWYRQAPGKERELVARISDGGGSTYYADSVKGRFTISRDNAKNTVYLKMNSLKPEDTAVYYCAAGGDLRLDRRFAFVSRGDYWGQGTQVTVSS”, “low polyreactivity”.
With “QVQLVKSGGGLVQAGGSLRLSCAASGSTFYNAMGWYRQAPGKERELVAAISIGGSTYYADSVKGRFTISRDNAKNTVYLQMNSLKPEDTAVYYCAAVWYTSRQKYDYWGHGTQVTVSS”, the “polyreactivity (PSR sort gate)” value is “low polyreactivity”.
In the case of “QVQLVKSGGGLVQAGGSLRLSCAASGSTFYNAMGWYRQAPGKERELVAAISIGGSTYYADSVKGRFTISRDNAKNTVYLQMNSLKPEDTAVYYCAAVWYTSRQKYDYWGQGTQVTVSS” it was “low polyreactivity”; in that of “QVQLVLLGGGLVQAGGTLRVSCAPSGSIIYWKDRGWYRQAPGKERELDASITASGSSTYYADSVKGRFTISRDNGKNTVYLQMNSLLPEDTAVYYCNTSVFTYYDSAYDYWGQGTQVTVSS”, “low polyreactivity”.
As for “QVQLVQSGAGLVQAGGSLRLSCAPSGFIFRRYDMAWYRQAPGKERELVAAITSSGGTTYYADSVKGRFTNSRDNAKNTVYLQMNSLKPEDTAVYYCNAVRGVYARRSDYWGQGTQVTVSS”, the entry is “high polyreactivity”; as for “QVQLVQSGGGIVQAGGSLRLSCAAYGITFGRNNMGWDRQAPGKERELVAALDSGGNTYADSVKGRFTISRDNAKQTVYVQMNSLKPEDTAVYDCAVDGGEFSSYGYWGQGTQVTVSS”, “low polyreactivity”; as for “QVQLVQSGGGLFQAGGSLRLSCAASGRTFWSNAMGWYRQAPGKERELVADITFSGGRTYYADSVKGRFTISRDNAKTSVYLQMNRLKPEDTAVYYCSSSATPSGVGMDYWGQGTQVTVSS”, “low polyreactivity”.
Consider “QVQLVQSGGGLVHAGGSLRLSCAASGRISFYYAMGWYRQAPGKERELVAAISRGGSTYYPDSVKGRFTISRDNAKNTVFLQMNSLKPEDTAVYYCAATYSGVDTPSGYDYWGQGTQVTVSS”, for which the “polyreactivity (PSR sort gate)” value is given as “low polyreactivity”.
With “QVQLVQSGGGLVQAGGSLRLICAASGGTFSYNTMGWYRQAPGKVRELVAVITFSGGSTYYADCVKGRFTISRDNAKNTVYLQMNSLKQEDTAVYYCAADWLSKYDYWGQGTQVTVSS”, the “polyreactivity (PSR sort gate)” value is listed as “low polyreactivity”.
As for “QVQLVQSGGGLVQAGGSLRLSCAASGFTLRRNAMGWYRQAPGKERELVAAISSSGSTYYADSVKGRFTISRDNAKNTVYLQMNSLKPEDTAVYYCAASATYKVRGGYWGQGTQVTVSS”, the entry is “high polyreactivity”; as for “QVQLVQSGGGLVQAGGSLRLSCAASGRTFGRYAMGWYRQAPGKERELVAAINRGGSTKYADSVQGRFTISRDNAKNTVYLQMNSLKPEDTAVYYCAKDRHPALLYDYWGQGTEVTVSS”, “low polyreactivity”.
Regarding “QVQLVQSGGGLVQAGGSLRLSSAASRSPLGYYALGWYRQAPGKERELVAAISGRGTSPYYADSVKGRFTISRDNAKNTVYVQMNSLKPEDTAVSYCAAQLFRELYWGQGTQVTVSS”, the “polyreactivity (PSR sort gate)” value is on record as “high polyreactivity”.
